The target in data set [1] is T1, mPNKP D170A (Mus musculus (murine), UniProt Q9JLV6 1-522, D170A). The data set can be described thus: EMSA.
Data set [2] addresses T1, mPNKP D170A. The data set can be described thus: EMSA. This is another data set of the same source. (Mobility shift assays separate free from complexed probe on a gel.)

Where two headings read alike, the source gives them in different places.

T1 sequence (Q9JLV6 whole entry D170A): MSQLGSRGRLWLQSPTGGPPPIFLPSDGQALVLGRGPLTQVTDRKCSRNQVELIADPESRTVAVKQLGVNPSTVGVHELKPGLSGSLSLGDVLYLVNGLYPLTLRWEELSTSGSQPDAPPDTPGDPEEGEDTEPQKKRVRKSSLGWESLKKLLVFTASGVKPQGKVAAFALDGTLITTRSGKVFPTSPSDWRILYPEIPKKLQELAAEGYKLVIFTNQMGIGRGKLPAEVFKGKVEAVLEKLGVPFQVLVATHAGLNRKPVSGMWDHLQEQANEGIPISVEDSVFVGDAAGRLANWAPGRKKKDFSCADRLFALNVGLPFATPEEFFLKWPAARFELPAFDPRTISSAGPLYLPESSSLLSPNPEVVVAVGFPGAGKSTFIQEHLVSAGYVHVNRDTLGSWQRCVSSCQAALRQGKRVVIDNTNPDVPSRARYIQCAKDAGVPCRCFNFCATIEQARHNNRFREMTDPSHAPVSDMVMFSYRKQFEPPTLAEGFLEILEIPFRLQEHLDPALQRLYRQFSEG

B1: FAM-20p/20c blunt duplex (dsDNA)
DNA 1: TAGCACCTACCGATTGTATG
DNA 2: CATACAATCGGTAGGTGCTA
modifications: 3'-phosphate on strand 1; 5'-phosphate on strand 2
With B1, in the data set with mPNKP D170A [1], the binding result is listed as “binds”.

B2: FAM-20p/36c 5' overhang duplex (dsDNA)
DNA 1: TAGCACCTACCGATTGTATG
DNA 2: CGACACAAAAACGTATCATACAATCGGTAGGTGCTA
modifications: 3'-phosphate on strand 1; 5'-phosphate on strand 2
Take B2: the binding result in the data set with mPNKP D170A [1] is reported as “binds”.
For TAGCACCTACCGATTGTATG (ssDNA, 3'-phosphate) [FAM-20p ssDNA], in the data set with mPNKP D170A [2], the binding result is reported as “binds”.

(Values after paper PMC5449630.)
